Consider two molecules from US20230406922A1 (SIMCERE ZAIMING PHARMACEUTICAL, published 2023).

What is called EC50 is the midpoint of the concentration-response curve. The EC50 (read off the curve) is the concentration at which the effect is half-maximal.

The target of experiment [1] is T1, monkey CD19, full length, on HEK293T cells (monkey, UniProt P15391 20-556 (human entry)).
T1 construct: The entry holds the signal peptide; also called HEK293T-monkey CD19
T1 chain: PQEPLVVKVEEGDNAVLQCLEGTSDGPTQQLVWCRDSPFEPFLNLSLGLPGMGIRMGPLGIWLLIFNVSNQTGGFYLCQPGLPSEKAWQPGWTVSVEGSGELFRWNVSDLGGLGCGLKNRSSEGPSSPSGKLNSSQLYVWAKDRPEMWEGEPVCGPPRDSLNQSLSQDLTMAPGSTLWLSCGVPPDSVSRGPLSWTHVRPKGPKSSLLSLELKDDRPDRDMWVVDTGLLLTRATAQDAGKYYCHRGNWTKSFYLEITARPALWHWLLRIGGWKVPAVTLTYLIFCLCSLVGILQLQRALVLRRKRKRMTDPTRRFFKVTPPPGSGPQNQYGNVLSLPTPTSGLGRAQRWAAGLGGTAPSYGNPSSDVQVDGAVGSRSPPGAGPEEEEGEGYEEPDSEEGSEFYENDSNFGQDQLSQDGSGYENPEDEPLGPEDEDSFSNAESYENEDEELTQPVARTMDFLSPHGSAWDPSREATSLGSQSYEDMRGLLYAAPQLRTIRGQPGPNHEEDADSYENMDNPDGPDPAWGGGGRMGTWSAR
Put plainly: FACS on HEK293T-monkey CD19 cells. On the procedure:
(§1) For suspension cells Raji, the medium supernatant was discarded by direct centrifugation, and the cell pellet was washed twice with PBS. After cell counting of the cells obtained in the last step, the cell pellet was resuspended to 2×10⁶ cells/mL with a blocking solution [PBS+2% (w/w) BSA] and added into a 96-well FACS reaction plate at 50 μL/well. […] After the plate was centrifuged and washed 5 times with a PBS buffer, the results were assayed and analyzed by FACS (FACS Canto™, purchased from BD Biosciences). Data analysis was performed by software (CellQuest) to obtain the mean fluorescence intensity (MFI) of the cells. Then, analysis was performed by software (GraphPad Prism8), data were fitted, and EC₅₀ values were calculated.
(§2) HEK293T-monkey CD19 cells were subjected to the FACS assay and data analysis according to the method described in Example 4.2.

Experiment [2] deals with T2, cynomolgus monkey CD19 on peripheral blood B cells (cynomolgus monkey (Macaca fascicularis), UniProt A0A2K5W8L9 20-557).
T2 construct: whole, on cells; also called cynomolgus monkey B cells
T2 sequence: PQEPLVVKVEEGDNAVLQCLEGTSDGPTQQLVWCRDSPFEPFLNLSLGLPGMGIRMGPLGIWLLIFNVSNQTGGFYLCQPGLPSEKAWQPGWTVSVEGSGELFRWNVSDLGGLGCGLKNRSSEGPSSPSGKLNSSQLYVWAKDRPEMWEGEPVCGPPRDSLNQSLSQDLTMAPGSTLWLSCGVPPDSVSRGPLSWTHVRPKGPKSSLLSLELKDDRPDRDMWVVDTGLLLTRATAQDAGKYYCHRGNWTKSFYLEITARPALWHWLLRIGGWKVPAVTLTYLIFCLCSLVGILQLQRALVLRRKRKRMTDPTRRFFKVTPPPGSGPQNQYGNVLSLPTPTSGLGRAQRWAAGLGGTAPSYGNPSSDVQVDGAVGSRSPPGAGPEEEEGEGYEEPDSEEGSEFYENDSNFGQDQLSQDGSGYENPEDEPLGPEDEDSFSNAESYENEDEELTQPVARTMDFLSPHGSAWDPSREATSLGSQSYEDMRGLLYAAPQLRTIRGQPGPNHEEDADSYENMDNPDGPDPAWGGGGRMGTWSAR
Put plainly: FACS on cynomolgus monkey PBMC, gated on CD20-positive B cells. Here is the method:
Monkey peripheral blood mononuclear cells were extracted from fresh cynomolgus monkey peripheral blood (purchased from Shanghai Medicilon Inc.) according to Ficoll-Paque Plus (purchased from GE Healthcare, Cat. No. 171440-02). […] The cells were incubated at room temperature for 1 h. […] The cells were incubated at room temperature for 30 min in the dark, washed 5 times, gently resuspended in PBS, and assayed and analyzed by FACS (FACS Canto™, purchased from BD Biosciences), in which CD20 was used as a marker for B cells.

Experiment [3] concerns the target T1, monkey CD19, full length, on HEK293T …. The experiment is described as follows: FACS titration on HEK293T-monkey CD19 cells. Here is the method:
as §1, §2

B1: FMC63.26-mIgG1 (antibody, V domains shown)
VH: EVTLKESGPVLVKPTETLTLTCTVSGFSLPDYGVSWIRQPPGKALEWLAVIWGSETTYYNSALKSRLTISKDTSKSQVVLTMTNMDPVDTATYYCAKHYYYGGSYAMDYWGQGTTVTVSS
VL: DIQMTQSPSSLSASVGDRVTITCRASQDISKYLNWYQQKPGGAVKLLIYHTSRLHSGVPSRFSGSGSGTDYTLTISSLQPEDFATYYCQQGNTLPYTFGGGTKVEIKR
notes: Humanized FMC63; also called FMC63-L2H6
On to B1, for which, in experiment [1], the EC50 was determined as 20.3 nM and the “maximum mean fluorescence intensity” value was 38500 MFI. For the same molecule, in experiment [2], the “proportion of positive cells to B cells (%) at 1 nM” value is 3%, the “proportion of positive cells to B cells (%) at 10 nM” value is 6% and the “proportion of positive cells to B cells (%) at 100 nM” value came out at 39%.

B2: FMC63.25-mIgG1 (antibody, V domains shown)
VH: EVTLKESGPVLVKPTETLTLTCTVSGFSLSDYGVSWIRQPPGKALEWLAVIWGSETTYYNSALKSRLTISKDTSKSQVVLTMTNMDPVDTATYYCAKHYYYGGSYAMDYWGQGTTVTVSS
VL: DIQMTQSPSSLSASVGDRVTITCRASQDISKYLNWYQQKPGGAVKLLIYHTSRLHSGVPSRFSGSGSGTDYTLTISSLQPEDFATYYCQQGNTLPYTFGGGTKVEIKR
notes: Humanized FMC63; also called FMC63-L2H5
Turning to B2, in experiment [1], the EC50 is 1.52 nM and the “maximum mean fluorescence intensity” value was 34700 MFI. In addition, in experiment [3], the “EC50 (read off the curve)” value was approximately 0.2 nM. Moreover, in experiment [2], the “proportion of positive cells to B cells (%) at 1 nM” value came out at 4%, the “proportion of positive cells to B cells (%) at 10 nM” value was found to be 10% and the “proportion of positive cells to B cells (%) at 100 nM” value is 60%.
